In US20240327509A1, “HUMAN CXCLI6 ANTIBODIES AND THE USE THEREOF” (CELLUS,INC., priority 2021, published 2024):
Numbering of substitutions follows the chain as printed.

B1: HC0LC0: chimeric antibody that binds to human CXCL16; rat variable regions (CDRs SEQ ID NOs 12-17), heavy SEQ ID NO: 32, light SEQ ID NO: 34 (antibody)
heavy: ACCMGWTLVFLFLLSVTAGVHSAVQLVESGGGLVQPKESLKISCAASGFTFSNAVMNWVRQAPGKGLEWVARIRTKPNNYATFYADSVKGRFTFSRDDSKSMVYLQMDNLKTEDTAMYYCTAWTTEGIYWGQGTLVTVSSAETTAPSVYPLAPGTALKSNSMVTLGCLVKGYFPEPVTVTWNSGALSSGVHTFPAVLQSGLYTLTSSVTVPSSTWSSQAVTCNVAHPASSTKVDKKIVPRECNPCGCTGSEVSSVFIFPPKTKDVLTITLTPKVTCVVVDISQNDPEVRFSWFIDDVEVHTAQTHAPEKQSNSTLRSVSELPIVHRDWLNGKTFKCKVNSGAFPAPIEKSISKPEGTPRGPQVYTMAPPKEEMTQSQVSITCMVKGFYPPDIYTEWKMNGQPQENYKNTPPTMDTDGSYFLYSKLNVKKETWQQGNTFTCSVLHEGLHNHHTEKSLSHSPGK
light: ACCMVSSAQFLGLLLLCFQGTRCDIVMTQSPSSLAVSAGETVTINCKSSQSLLYSGNQKNYLAWYQQKPGQSPKLLIYWASTRQSGVPDRFIGSGSGTDFTLTISSVQAEDLAIYYCQQYYDTPWTFGGGTKLELKRADAAPTVSIFPPSTEQLATGGASVVCLMNNFYPRDISVKWKIDGTERRDGVLDSVTDQDSKDSTYSMSSTLSLTKADYESHNLYTCEVVHKTSSSPVVKSFNRNEC
B2: Chimeric antibody HC0LC0 (antibody, V domains shown)
VH: AVQLVESGGGLVQPKESLKISCAASGFTFSNAVMNWVRQAPGKGLEWVARIRTKPNNYATFYADSVKGRFTFSRDDSKSMVYLQMDNLKTEDTAMYYCTAWTTEGIYWGQGTLVTVSS
VL: DIVMTQSPSSLAVSAGETVTINCKSSQSLLYSGNQKNYLAWYQQKPGQSPKLLIYWASTRQSGVPDRFIGSGSGTDFTLTISSVQAEDLAIYYCQQYYDTPWTFGGGTKLELKR
notes: also called CLS-A1HC0LC0; variant antibody
B3: HC2LC4 (antibody, human IgG1, kappa, V domains shown)
VH: B2 VH with K15G, E16G, P41S, A49G, F72I, S79N, M80T, V81A, D86N, N87S
VL: DIQMTQSPSSLSASVGDRVTITCKSSQSLLYSGNQKNYLAWYQQKPGQSPKLLIYWASTRQSGVPSRFSGSGSGTDFTLTISSLQPEDLAIYYCQQYYDTPWTFGGGTKLELKR
notes: Humanized variant; human IgG1 / kappa constant domains
B4: HC5LC5 (antibody, human IgG1, kappa, V domains shown)
VH: B2 VH with A1E, K15G, E16G, I20L, P41S, S79N, M80T, V81A, D86N, N87S
VL: B2 VL with T18R, V19A, V84L, L89V
notes: Humanized; human IgG1 / kappa constant domains; also called HCSLCS; humanized CXCL16 antibody HC5LC5
B5: HC5LC1 (antibody, human IgG1, kappa, V domains shown)
VH: B2 VH with A1E, K15G, E16G, I20L, P41S, S79N, M80T, V81A, D86N, N87S
VL: B2 VL with S9D, I69S, L89V, I91V, L110V, L112I
notes: Humanized; human IgG1 / kappa constant domains; also called HCSLC1; humanized CXCL16 antibody HC5LC1
B6: HC4LC1 (antibody, human IgG1, kappa, V domains shown)
VH: EVQLVESGGGLVKPGGSLRLSCAASGFTFSNAVMNWVRQAPGKGLEWVARIRTKPNNYATFYADSVKGRFTFSRDDSKNTLYLQMNSLKTEDTAVYYCTAWTTEGIYWGQGTTVTVSS
VL: B2 VL with S9D, I69S, L89V, I91V, L110V, L112I
notes: Humanized; human IgG1 / kappa constant domains; also called humanized CXCL16 antibody HC4LC1
B7: HC5LC2 (antibody, human IgG1, kappa, V domains shown)
VH: B6 VH with K13Q, R19K, P41S, L81A, V95M, T113L
VL: B2 VL with A15L, V19A, S49P, I69T, S73A, L110V, L112I
notes: Humanized; human IgG1 / kappa constant domains; also called HCSLC2; humanized CXCL16 antibody HC5LC2
B8: HC5LC3 (antibody, human IgG1, kappa, V domains shown)
VH: B6 VH with K13Q, R19K, P41S, L81A, V95M, T113L
VL: B3 VL with S66D, P86A, L89F, I91T, L110V, L112I
notes: Humanized; human IgG1 / kappa constant domains; also called HCSLC3; humanized CXCL16 antibody HC5LC3

How the values were obtained:
[1] = test system: 4T1, a breast cancer cell line; conditions: 4T1 in C3H mice; FIG. 7
Method: 2×10^6 pieces of 4T1, a breast cancer cell line, were injected into the back of C3H mice, and anticancer drugs were administered to each experimental group from the 5th day when the tumor was formed.

[2] = test system: anaplastic thyroid cancer cell line FRO; assay: thyroid cancer mouse model, combination with lenvatinib; type: in vivo, nu/nu mice
Description: We measured tumor size with a caliper and calculated tumor volume using the following equation: volume=½× a×b2, where a=long tumor diameter and b=short tumor diameter.

[3] = target: T1, Recombinant human CXCL16 (rhCXCL16) protein (Homo sapiens, UniProt Q9H2A7); assay: bio-light interferometry (ForteBio) binding analysis; conditions: antibody captured on biosensor, rhCXCL16 100 nM, 25° C.; ND = signal was not detectable
T1 sequence (Q9H2A7 30-118): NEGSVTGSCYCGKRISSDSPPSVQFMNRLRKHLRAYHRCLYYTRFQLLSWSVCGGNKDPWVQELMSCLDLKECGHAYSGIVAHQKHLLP
Method: (§1) The binding characteristics of 25 CXCL16 antibodies were analyzed using the bio-light interferometry (ForteBio). All antibodies were diluted in freshly prepared running buffer. Antibodies were immobilized onto the surface of a series of biosensors using the capture methods at 0.3 μg/mL. Recombinant human CXCL16 (rhCXCL16) protein (100 nM) was passed over the surface to generate a binding response for 10 minutes. Binding data for the antibody and antigen interactions were collected at 25° C. on the biosensors. Then, the running buffer was passed for 10 minutes to dissociate them. The association constant (ka) and the dissociation constant (ka) were observed, and the equilibrium binding constant (KD) was calculated. […] R2: The value indicating how well the fit and experimental data correlate; X^2: The measure of error between the experimental data and fitted line.

[4] = target: T2, Recombinant mouse CXCL16 antigen (mouse, UniProt Q8BSU2 27-114, limits assumed); assay: ELISA, recombinant mouse CXCL16 immobilized on the plate, HRP-labeled anti-human IgG detection, OD 450 nm
T2 construct: Bought recombinant protein (503-CX, R&D systems); also called 503-CX (R&D systems)
T2 sequence: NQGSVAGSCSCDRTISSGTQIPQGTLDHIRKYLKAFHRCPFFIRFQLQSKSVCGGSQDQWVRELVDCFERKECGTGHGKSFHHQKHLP
Method: To evaluate the cross-reactivity with mouse CXCL16 antigen, the same ELISA experiment was performed with recombinant mouse CXCL16 antigen (503-CX, R&D systems). The mouse CXCL16 antigen was immobilized onto 96-well plates by incubation for 2 hours at room temperature. Non-specific binding sites were blocked by incubating with 1% BSA in PBS overnight at 4° C. After coating, the plates were washed with PBS. Humanized CXCL16 antibodies at various concentration (0.00 1˜10 nM) were incubated with the immobilized antigen for 2 hours at room temperature. After binding, the plates were washed, incubated with HRP-labeled anti-human IgG antibody (W4031, Promega, USA) for 0.5 hours, and developed using the substrate solution (DY008B, R&D systems). The binding affinity of humanized antibodies was similar to that of IgG antibody.

[5] = target: T3, Recombinant human CXCL16 (rhCXCL16) protein (human, UniProt Q9H2A7 30-118, limits assumed); assay: BLI (ForteBio), antibody captured on biosensor, rhCXCL16 in solution, 25 C
T3 construct: Bought recombinant protein (976-CX, R&D systems); also called CXCL16 antigen; 976-CX (R&D systems)
T3 sequence: T1 sequence (Q9H2A7 30-118)
Method: as §1, with “(kₐ)” for “(ka)”, “X²:” for “X^2:”

[6] = target: T3, Recombinant human CXCL16 (rhCXCL16) …; assay: as above; remark: listed apart in the source
[7] = target: T3, Recombinant human CXCL16 (rhCXCL16) …; assay: BLI (ForteBio), antibody captured on biosensor, rhCXCL16 in solution
Method: as §1, with “(kₐ)” for “(ka)”, “X²:” for “X^2:”

Molecule	binding result [4]	Kd [5]	koff [5]	Res@3.7 nM [6]	kon [5]	further results
CC(=O)O[C@H]1C(=O)[C@@]2(C)[C@H]([C@H](OC(=O)c3ccccc3)[C@]3(O)C[C@H](OC(=O)[C@H](O)[C@@H](NC(=O)c4ccccc4)c4ccccc4)C(C)=C1C3(C)C)[C@]1(OC(C)=O)CO[C@@H]1C[C@@H]2O [Taxol, paclitaxel]						therapeutic effect (tumor growth) [1]: did not have a clear therapeutic effect
COc1cc2nccc(Oc3ccc(NC(=O)NC4CC4)c(Cl)c3)c2cc1C(N)=O [lenvatinib]						therapeutic effect (tumor growth) ([2]; after phase 1, rate the same as that of the control group): therapeutic effect of lenvatinib was lowered; therapeutic effect (tumor growth) ([2]; phase 1 (up to day 22), lenvatinib orally 30 mg/kg/day five times a week): therapeutic effect of lenvatinib was maintained
B1						kd [3]: <1e-07 s⁻¹
B2	no binding (tested: 1500 ng/mL)	< 0.001 nM	< 1e-07 s⁻¹	0.13		
B3						binding result [7]: no binding (tested: 100 nM rhCXCL16)
B4	no binding (tested: 1500 ng/mL)	< 0.001 nM	< 1e-07 s⁻¹	0.231	18200 M⁻¹ s⁻¹	
B5		3.26 nM	5.97e-05 s⁻¹	0.08	18300 M⁻¹ s⁻¹	
B6		1.09 nM	1.9e-05 s⁻¹	0.113	17400 M⁻¹ s⁻¹	
B7	no binding (tested: 1500 ng/mL)	2.5 nM	6.07e-05 s⁻¹	0.152	24300 M⁻¹ s⁻¹	
B8		1.44 nM	0.000635 s⁻¹	0.078		
